In the DeepSol protein solubility set:

Assay: soluble on expression in E. coli; label from the status in PepcDB or PDB records

| Sequence | soluble on expression in E. coli |
| --- | --- |
| MSAKIKAWSSNAEKLNSKRKKMEIREELFPSTTCSSSPQANQEISSEDRNSHHPDIASSSSATTCRSSNCFNMDEGILTRDVEMDFSDEIPTFSHNRFSNPVFPPTPSRNSFSTPRVRIISNVEQIPQIKMLRLTIERLKNEKMKYQKKYKSGMAVDFLSKCGLSLSQMEKIKNYLTNSIGYDLLPLVKNTRDLSIQLSMISSFKVSTSFDNKGKVITIVQCMKIAEVLAYRIELLCNSNQFVDDGYTKGVIKIGVVGDAGGGSTKHVMVIAVYDGSDNYSCLKKFIPDVLEQLGKLTKIRYLDKGVQKTAKIVQIATGDCKFQFDILGHQGHSSHNFCFKCFAQNPRGAEERMKIKDMNVDETFHPRTIDLYKACCTPLLPHVAIMFYLIPLLHIIMGIFDKYIFNPLWKYSVTLDNTTCFPILKTRKATLKNAVNLIKSAEEKYQAATGKMKLESHAELKALQSEKLLLDTIVNGTPGGTLEKMEQCWAKFGADKQAWFQSFCGNHLKLLLTPAIVEETFNIFGPNLCPMLLGLKSAMGKLSTIMSLSGNKFLNDSDVLILQNSIRGFVEDLKVAVPEETIILKLHLVVYHAPQMAKDVRNIGRITEPGVESVHAIFNALERRFCNYRDKKRRYIHVLRELMCRNIMNDMTMNTSIPGLSIVPKDATVLPISSQNDLRDPKVVIRDVTAAQKRKNLAKKKINFSSKKRLPQSTKSRNAVPDFSQNVQTSIAFGGNSTKIGFRGLPSNALSRPNPMAITQTCSTSQPITRSHPLVAPPVSYQLPKCSNSLAEKIRASCGQARRSAAESSSTESHVDTNSKKKVYRLKFVQKSREIPKK | not soluble |
| MSALDCPAGTVLFRAGQDCPGFLRLDEGSIRVTLTAANGREVVLYRVRPGDVCLQTFACLTEGRSYSAEGVAETRVRGHLMSHADFRTALARDEAFRTEVMQAVARRFADFEHLVEDVALTGFDTRLARVLLRLAKGDTVAATHEALAAETASGRAFVSRRLAEFARQGLVELARGRVTLCDRSGLERIAAEER | not soluble |
| MSANGCCCCGGVDSREQKLNEIIEKYKNTKGALVPVLHEAQEVYGYLPLEVQKKIAEGLNIPLAEVYGVVTFYTQFSLNPKGKYKIQVCMGTACYVKGSGAILEKLKEKLEIDVGECTSDGKFSLEACRCIGACGLAPVIMINDDVYGRLVPDDIEGIIEKYKKE | soluble |
| MSANREKKKLETVIKNLEKKIEDQKANAGTKKKEAEQKENLRIEQEKIKKKKEQERLEVPPTPFDDLNSQSAKTLRVEKAIENLKFLGGKSTEFYRRVIGRLGKSGLFKWKMSKREGFYLYHACGLTRRKLRTLKAHFSKSGCSDPFPSVHEIMKIEKIVGAGEQFSVTEHDKDGEEVVAAHLVDVIKYLTDRIHHLIDNGNLVIGTDPIWLTILGDKGSDEFKLCLSIGNAKNPNSCCHLIPLGIFNDDEKSSNISNDLTPIVAQLNSLKELKLKVAGTDVTVPVQQFLGGDMKFQYDVLGHQGASSQFHCMFCNSLKSRLIGGYIRGANVTLRTAASYKENSGKDGNNYARKKSVSIRSRQSTKCDPRSLHTLMGLAQRFGFDYLILWAARIDNPTLTLTKTDIKRSKISKGRLNQLQESLKKLEKVVSGMETVQQVFQNYKNKRVDGRSCGETCHASICLFKDKKMKSAKGYDGRKVECNTCFQAVHAVCGGLWTLDDWELTISIFRENNRHLNELRSDLREKKSVIFSQGLKIDMLESQLSQRQTEFEYRSANAAANSFTRKDHGKLYHCFDIKNQDSTSVSDTMTCRCSMKPCVFYLDSLPAAKTPSLTQLRRIVVLMQQKPSQKIDPKEMLLMTSMHLPFPMQEPSTEYFNAISGCSTSYICVEEMGIGFSFRRHVEKLWMKNLPPATNGTDKAANDLKNQLKVRRNVGKHDRTSRYARKSHN | not soluble |
| MSAPAAAPKHPGKVFLDPSEVADHLAEYRIVDCRYSLKIKDHGSIQYAKEHVKSAIRADVDTNLSKLVPTSTARHPLPPCAEFIDWCMANGMAGELPVLCYDDECGAMGGCRLWWMLNSLGADAYVINGGFQACKAAGLEMESGEPSSLPRPATHWPFKTAFQHHYLVDEIPPQAIITDARSADRFASTVRPYAADKMPGHIEGARNLPYTSHLVTRGDGKVLRSEEEIRHNIMTVVQGAGDAADLSSFVFSCGSGVTACINIALVHHLGLGHPYLYCGSWSEYSGLFRPPIMRSIIDDYGMCMQMQTPSLGDNPKANLDTMTLKVDGAPCERPDAEVQSAATHLHAGEAATVYFKSGRVVTIEVPVVPNLEA | soluble |
| MSAPLFSVVVPAYNQHKFIDSCLTSLQRQTLTDFEVFVVDDCSTDDTGEQIAALIKGDDRFHVITHAHNRGVSAARNSGMAAAKGKYLCFVDGDDWVEPDFLATFLAAYRSAPDTQLVVCGHYGYLAVPSPAKTYNQKDLIANINFGTVGGFSWNKAFIRSIITTHHLKFNEDIDFLEDQLFAFRYANYVQSSEYVPDRTYHYRWRFRSNLAHIGIPFFTARRKMMKILKQENKQVLNEDWNNQ | not soluble |
| MSAQLTDSYGLLEARVTELKGELADAGVQRLQELAEKERLANRLQNLLDLLPGGVIVIDGMGVVREANPAAIDLLGQPLLGMLWRHVISRCFAPREDDGHEVSLKDGRRLSIATRSLDAEPGQLVLLNDLT | not soluble |
| MSAQVQDLTPIKGVTYYYPPHDAVLVFKDGAAEIPYGGLPVPLLEEDYASLDGEPSYDAVGRGVYQTLRTNPDCIHCAAYATLLRDAYPHYLAELASHAIMLDSKDVEVPYIDRKIVSLKVLSLLEPDNAGLPLEIGRAYLDRGLRLSALHMSTVSIYRAEHFLRRALELTPEDGRALRLLGEVCYLLGKYEEAASCWLDTLDLADADEAERFRVRLARISEGRLPLIAPVDYLEAIGAAFTCFHTGDYEEAVAILQDVLMDGIFCAEFPIADIHCVIGKSFVQLDMPRYAEESFRAALQLDPAHEESLACLRKVTGEELEHHHHHH | soluble |
| MSDCNWTNPLCNTSLLLASGYALWSCASKKNKKETKTETKKSHDCPPQTIEPVKDEKNSNSEEKKTTSSNNEVPPQKKLIGNDEVKKEKKKSEDDLLDVKKTASKEDDKKRMDKKDPSKKLSKEKLREEKKEQSKKVNKEKKMNKSESVDEDNEQPPEPGSDPRKIWAFKAAKMKCQAISKLHQDKIKGYMPPNCTYTAYDANPDLNRYADVRCIEETRVVLKNHDRDYIHASWMRMPGKDQSTYITTQGPLPETLSDFWHMIYQEKIAYVLMLCTLFEGGVEKCALYYPEKLGEVVKFGKYEITLTECKEEAIAGTIWNALTVTNTEDASSEPLYMNHVQVPWWPDQLAPEDARPMIELYKWVKKVNPKETPICVHCSAGVGRTATFVGIDYATIRIMENPNIEMLDIVREMRAMRFQAVQSHMQFLFLYVVLMEYFIGEGVVERTGRVDTFMTQYKKHAQKKLAKRAAQNQQGEKLAAEEKEKDKVKV | soluble |
| MSDDARFQQLNCWLDSCLPELFVAEGWGEVPPAELIPASSDASFRRYFRWQGGDRSLVVMDAPPPQEDCRPFVKVAGLLAGAGVHVPRILAQDLENGFLLLSDLGRQTYLDVLHPGNADELFEPALDALIAFQKVDVAGVLPAYDEAVLRRELQLFPDWYLARHLGVELEGETLARWKRICDLLVRSALEQPRVFVHRDYMPRNLMLSEPNPGVLDFQDALHGPVTYDVTCLYKDAFVSWPEPRVHAALNRYWKKATWAGIPLPPSFEDFLRASDLMGVQRHLKVIGIFARICHRDGKPRYLGDVPRFFRYLETAVARRPELAELGELLASLPQGAEA | not soluble |
| MSDEALTLLFSAVENGDQNCIDLLCNLALRNDDLGHRVEKFLFDLFSGKRTGSSDIDKKINQACLVLHQIANNDITKDNTEWKKLHAPSRLLYMAGSATTDLSKKIGIAHKIMGDQFAQTDQEQVGVENLWCGARMLSSDELAAATQGLVQESPLLSVNYPIGLIHPTTKENILSTQLLEKIAQSGLSHNEVFLVNTGDHWLLCLFYKLAEKIKCLIFNTYYDLNENTKQEIIEAAKIAGISESDEVNFIEMNLQNNVPNGCGLFCYHTIQLLSNAGQNDPATTLREFAENFLTLSVEEQALFNTQTRRQIYEYSLQ | not soluble |
| MSDEEIDISTALNNKTTPKKKSLKRNSNSQEGYESPEEREIVYPSVFGAIGTPMAKSDNAKEWDEWKEKERKKDKAEWKRYLRSKWDMTQGHLPLVSDSEFLKGRKEHKEYNSKARMDILDGLDEVNEGFFNCGKGAAMNIRYNDKNVSKKGAKKFVATVETAMKKAGNPTMEQMMTDDLDEDEARAEAEWERQREQRKLASRAYDAAMDEREDDAKYVPWDEYCQEMEELGKELKIGEKHYKKWLEKKMDENKVTHKFNAYQLDLKCLDEDAFSNKKSLKSVVRNVQKFYRKMREPKK | not soluble |
| MSDEKKKKRGFFRYSVLTTSSFSSWRRSSTSGSISQSSRTTSKTTTSSSVTSSNPINAPPPTATSSSSVLPSTSSEPPPPASAPPRISIYHKMVPSKSKFRQCDVCEHIFIFDFVRKQHLDDVYACNVCGIRVHKGCLDRVKNDCKITTQYMGGILENAVIQSNKKQWEKPTTASISKSLTTSPTCSTSTTMSPAGVEKNVHKTRKLISMTTSTLDDVTTFNSEINEEMDEETVLMTWEDVTIKLTDVDVMTKIGDGRFGSVYFGGYHGNAAVRFVNMNYLSQEDRRADVFATEIVSAYKNSRHDHIALFYGYVSDPVTNTYAIVTNFYQHNTLYHRIHEQLSEDFDQSWTFQISLQICQAMSYLHKKKILHRDLRTKNILLDNPNRVVVTDFALMKLERLENPRRNCTLLIPNHWIDYLSPEIAGNLMIDWRGDVLFQHELPFSQESDVYSFGTIFFELLLRRMPTGCDSWDQKLYAKMCGQKAALQRLDAQLQKIDGKLHELLLECWSSQPEKRPSFQQIVKRITVQMPRKESNKQKRRSTAHENPLF | not soluble |
| MSDIPAGDYEKGKKVYKQRCLQCHVVDSTATKTGPTLHGVIGRTSGTVSGFDYSAANKNKGVVWTRETLFEYLLNPKKYIPGTKMVFAGLKKADERADLIKYIEVESAKSL | not soluble |
| MSDKDFFSWRRTMLLRFQRMETAEEVYHEIELQAQQLEYDYYSLCVRHPVPFTRPKVAFYTNYPEAWVSYYQAKNFLAIDPVLNPENFSQGHLMWNDDLFSEAQPLWEAARAHGLRRGVTQYLMLPERALGFLSFSRCSAREIPILSDELQLKMQLLVRESLMALMRLNDE | soluble |
| MSDKPDSQVFCPNCNERLQKCLVQQNYAIIICPSLVCGYPFNQREVLENLTYVDDNDVLKVAKKRLSSRSKP | soluble |
| MSDLENKKAEEAPKKRPYNLREKKEKKAAYRSLIRPELADELYDKILNIVVVQKKYKDPDYSAKDLAKELKTNTRYLSAVVNSRFGMNYSCLLNEYRVKDALHLLTDKRYADKNVEEISAMVGFANRQSFYAAFYKNVGETPNGYRKKHAESKK | not soluble |
| MSDLFIHPELRFHSYGTWLRRRFGCNVSKVNVDGGFTCPNRDGSRGTGGCIYCDNASFSPGGTVPDKSIELQMAEGMAYHRQRLGSEKFIIYFQKFTNTYAPAARLRDLYTRALSHPDVVGISVGTRPDALADEALELLADLAQEHYVCIELGLQSMDDAILERINRGHTLDEYLRTVDRIAGRGIALCTHLIYGFPGETREGFLKTAHLLAGLPVDSVKLHQLHAVKGTRLAELYHRREFVPITLAEYVTTACDFLELLPPRI | not soluble |
